Target: γδ T cell receptor on human γδ T cells (AG000003021) (human)
Experiment: flow cytometry, DRC binding at 37°C on human γδ T cells
Description: Binding of antibodies to human γδ T cells or SKW cell lines expressing Vγ9/Vδ2, Vγ9/Vδ2 or Vγ5/Vδ2 was carried out by flow cytometry. Briefly, the cells were centrifuged at 300×g for 5 minutes and the pellet was resuspended in 34 ml fresh media (in RPMI+10% FBS). 50 μL of the cells were then plated (44K cells/well) into assay plates. Samples were incubated for one hour at 37° C. in tissue culture (TC) incubator followed by wash steps by adding 100 μl FACS staining buffer. Secondary detention antibodies (A647 conjugated anti-human IgG Fc specific antibody (2 μg/mL) along with AF488 anti mouse CD3, clone OKT3 at 1 ug/mL) were added at 50 μL/well to appropriate wells according to the plate map. After incubating for 60 minutes at 37° C. in the TC incubator, cells were again washed as described above. This is followed by resuspension in 20 μL/well running buffer containing 1:1000 dilution of Sytox blue dead cell stain and the plates were run on iQue Screener.
Gating and data analysis: Human anti-human Vγ9 antibody (VG9B2 mAb at 10 nM) was used to mark the gating of positive population. All cells were first gated for singlets on SCS-A vs. SCS-H dot plot, live/dead followed by CD3 positive population, and this subset of CD3 positive population was gated for Vγ9 positive binding using positive control mAb. Cells were also assessed for cell binding of control mAbs by RL1 (A647) Geomeans from the live cell population. Advanced metrics were used and normalization metrics were chosen to calculate fold over background wells containing secondary antibody alone (designated as ‘background’ within ForeCyt settings).

Max. Activity [fold over background]	Binder
3300	VG9B414 (antibody, human IgG1, kappa, IgG1, kappa) heavy: not shown light: EIVMTQSPSSVSASVGDRVTITCRASQGINSWLAWYQQKPGNAPKLLIYAASSLQSGVPSRFSGIGSGTDFIFTISSLQPEDFASYYCQQANSFPWTFGQGTRLEIKRTVAAPSVFIFPPSDEQLKSGTASVVCLLNNFYPREAKVQWKVDNALQSGNSQESVTEQDSKDSTYSLSSTLTLSKADYEKHKVYACEVTHQGLSSPVTKSFNRGEC
3120	VG9B416 (antibody, human IgG1, kappa, IgG1, kappa) heavy: not shown light: EIVLTQSPGTLSLSPGDRATLSCRASQSVASSYLAWYQQKPGQSPRLLIYGASSRATGIPDRFSGSGSGTDFTLTISRLEPEDFAVYYCQQYGSSPPYTFGQGTKLEIKRTVAAPSVFIFPPSDEQLKSGTASVVCLLNNFYPREAKVQWKVDNALQSGNSQESVTEQDSKDSTYSLSSTLTLSKADYEKHKVYACEVTHQGLSSPVTKSFNRGEC
3480	VG9B80 (antibody, human IgG1, kappa, V domains shown, IgG1, kappa) VH: EVQLVQSGGGLVKSGGSLRLSCAASGFTFSTYSMNWVRQAPGKGLEWVSSISSSSSYIFYADSVKGRIIISRDNAKNSLYLQMNSVRADDTAVYYCAKDGELGVFDYWGQGTLVTVSS VL: EIVLTQSPGTLSLSAGERATLSCRASQSISSSYLAWYQQKPGQAPRVLIYGPSGRATGIPDRFRGSGSGTDFTLTISRLEPEDFAVYYCQQFGRSPLTFGGGTKVEIKR
3050	VG9B104 (antibody, human IgG1, kappa, V domains shown, IgG1, kappa) VH: EVQLVESGGGLVKPGGSLRLSCAASGFTFSVYSMNWVRQAPGKGLEWVSSIGSSSSYIFYADSVKGRFTISRDNAKNSLYLQMNSLRAEDTAVYYCGRDHDYGGLDYWGQGTLVTVSS VL: EIVLTQSPGTLSLSPGERATLSCRASQSVSSSYLAWYQQKPGQAPRLLIYGPSNRATDIPDRFSGTGSGTDFTLTISRLEPEDFAVYYCQQYGRSPLTFGGGTKVEIKR
4290	VG9B54 (antibody, human IgG1, kappa, V domains shown, IgG1, kappa) VH: EVQLVESGGGLVKPGGSLRLSCAASGFAFSSYSLTWVRQAPGKGLEWVSSISSSSSYIFYADSVKGRFTISRDNAKNSLYLQMNSLRAEDTAVYYCATDGELGPFDYWGQGTTVTVSS VL: EIVMTQSPGTLSLSPGERATLSCRASQSVSSSYLAWFQQKPGQAPRRLIYGASSRATGIPDRFSGSGSGTDFTLTISRLEPEDFAVYYCQQYGRSPLTFGGGTKVEIKR
3260	VG9B195 (antibody, human IgG1, lambda, V domains shown, IgG1, lambda) VH: EVQLVESGGGLVKPGGSLRLSCAASGFTFSPYTMNWVRQAPGKGLEWVSSISSSSSYMYYADSVKGRFTISRDNAKNSLYLQMNSLRAEDTAVYYCARDGDLVGPTYYFDYWGQGTLVTVSS VL: SYELMQPPSVSVSPGQTASITCSGDKLGDKYACWYQQKPGQSPVLVIYQHNKRPSGIPERFSGSNSGKTATLTISGTQAMDEADYYCQAWDSTTVVFGGGTKLTVLG
3110	VG9B69 (antibody, human IgG1, kappa, V domains shown, IgG1, kappa) VH: EVQLVESGGGLVKPGGSLRLSCAASGFTFSSYDINWVRQAPGKGLEWVSSITSSSYYIYYADSVKGRFTISRDNAKNSLYLQMNSLRAEDTAVYYCARDLGVRGVDYYYYGLDVWGQGTMVTVSS VL: not shown
3040	VG9B198 (antibody, human IgG1, lambda, V domains shown, IgG1, lambda) VH: QVQLQESGPGLVKPSETLSLTCTVSGDSISSIYWSWIRQSAGKGLEWIGRIYTTDITNYNPSLKSRVTMSADTSKNQLSLKLTSVTAADTAVYYCAKNGYSYGGFNYWGQGTLVTVSS VL: QSVLTQPPSVSGAPGQRVTISCTGSSSNIGAGYDVHWYQRLPGTAPKLLIYGDSYRPSGVPDRFSGSKSGTSASLAITGLQAEDEADYYCQSYDSSLSVVVFGGGTKLTVLG
3230	VG9B140 (antibody, human IgG1, kappa, V domains shown, IgG1, kappa) VH: EVQLVESGGGLVKPGGSLRLSCAGSGFTFRSYDMNWVRQAPGKGLEWVSSISTSSGYIYYADSVKGRFTISRDNAKNSLSLQMNSLRAEDTAVFYCARDRGIAVAGDYYYGMDVWGQGTMVTVSS VL: not shown
3030	VG9B463 (antibody, human IgG1, lambda, V domains shown, IgG1, lambda) VH: EVQLVESGGGLVKPGGSLRLSCSASGFTFSNYDMNWVRQAPGKGLEWVSSISSSSSYIYYADSVKGRFTISRDNAKNSLYLQMNSLRAEDTAVYHCARDVGVTTDYYYYGMDVWGQGTTVTVSS VL: QPVLTQSSSASGTPGQRVTISCSGSSSNIGSNTVNWYQQFPGTAPKLLIYTNTQRPSGVPDRFSGSKSGTLVSLAISGLQSEDEADYYCAAWDDSLNAWVFGGGTKLTVLG
3670	VG9B121 (antibody, human IgG1, kappa, V domains shown, IgG1, kappa) VH: EVQLVESGGGLVKPGGSLRLSCVASGFTFSDYAMDWVRQAPGKGLDWISSISSTSNYIFYADSVKGRFTISRDNAKNSLYLQMNSLRVEDSAVYYCANSYNWNYGGAFDIWGQGTMVTVSS VL: DIQMTQSPGTLSSSPGERATLSCRASQSVSSSYFAWYQQKPGRAPRLLIYGASSRATGIPDRFSGSGSGTDFTLTISRLEPEDFAVYFCQQYGRSPLTFGGGTKVEIKR
3000	VG9B469 (antibody, human IgG1, kappa, V domains shown, IgG1, kappa) VH: EVQLVESGGGLVKPGGSLRLSCAASGFTFSHYDMNWVRQAPGKGLEWVSSISSSSSYIFYADSVKGRFTISRDNAKNSLLLQMNSLRAEDTAVYHCARDRGVGDTSDYYSFGLDVWGQGTMVTVSS VL: DIVMTQSPGTLSLSPGERATLSCRASQNVSSTYLAWYQQKPGQAPRLLIYGACSRATGIPDRFSGSGSGTDFTLTISRLEPEDYAVYYCQQYGSSPPYTFGRGTKLEIKR
3210	VG9B46 (antibody, human IgG1, kappa, V domains shown, IgG1, kappa) VH: EVQLVESGGGLVKPGGSLRLSCEASGFTFSINSMNWVRQAPGKGLEWVSSISSTSDYIFNADSVKGRFTISRDNAKNSLYLQMNSLRAEDTAVYYCVRDDVFGAFDIWGQGTMVTVSS VL: EIVLTQSPGTLSLSPGERATLSCRTSQSVSRSYLGWYQQKPGQPPRLLIFGSSSRATGIPDRFSGSGSGTDFTLTISRLEPEDFAVYYCQQYSRSPLTFGGGTKVDIKR

From US20220125947A1 (published 2022)
